# From patent US20170066830A1 (MERSANA THERAPEUTICS, published 2017)
# Changes are numbered by the printed parent chain.
# B1: XMT 1518 antibody (antibody, human IgG1, kappa, V domains shown)
# VH: QVQLVESGGGVVQPGRSLRLSCAASGFTFSSYGMHWVRQAPGKGLEWVAGIWWDGSNEKYADSVKGRFTISRDNSKNTLYLQMNSLRAEDTAVYYCAKEAPYYAKDYMDVWGKGTTVTVSS
# VL: EIVLTQSPGTLSLSPGERATLSCRASQSVSSDYLAWYQQKPGQAPRLLIYGASRRATGIPDRFSGSGSGTDFTLTISRLEPEDFAVYYCQQYVSYWTFGGGTKVEIKR
# B2: XMT 1519 antibody (antibody, human IgG1, kappa, V domains shown)
# VH: EVQLVESGGGLVQPGGSLRLSCAASGFTFSSYSMNWVRQAPGKGLEWVSYISSSSSTIYYADSVKGRFTISRDNAKNSLYLQMNSLRAEDTAVYYCARGGHGYFDLWGRGTLVTVSS
# VL: not shown
# B3: XMT 1520 antibody (antibody, human IgG1, kappa, V domains shown)
# VH: B2 VH with S31G, Y32R, S54D, S56R
# VL: not shown
# B4: Example 16H, XMT 1519-(EG2-MI-(10 kDa PHF-BA-(AF-HPA-Ala))) (antibody, human IgG1, kappa, V domains shown)
# VH: B2 VH
# VL: not shown
# modifications: polymer-drug scaffolds on cysteine thiols possible; positions not given; EG2-MI-(10 kDa PHF-BA-(AF-HPA-Ala)) polymer-drug scaffolds joined to cysteine thiols of the partially reduced antibody; positions not given; DAR about 11.8:1 to about 17.5:1
# Assays:
# [1] = target: T1, full-length human HER2 receptor on cells (human, UniProt P04626 23-1255); assay: flow cytometry competition on JIMT-1 cells: unlabeled XMT 1518 titrated against 30 nM Alexa Fluor 647-labeled XMT 1519
# T1 construct: also called HER2 on JIMT-1 cells; HER2 on BT474, MCF7, SKBR3 cells
# [2] = target: T1, full-length human HER2 receptor on cells; assay: cell-based or functional assay
# [3] = target: T1, full-length human HER2 receptor on cells; assay: cell-based or functional assay; remark: listed apart in the source
# [4] = target: T1, full-length human HER2 receptor on cells; assay: flow cytometry on JIMT-1 cells, Alexa Fluor 647 goat anti-human IgG detection
# Method: The cell surface binding of the HER2 antibodies to JIMT-1 cells were evaluated using a Macsquant flow cytometer (Miltenyi Biotec, Bergisch Gladbach, Germany). JIMT-1 cells, grown overnight to approximately 90% confluent cultures in DMEM media (ATCC, Manassas, Va.) with 10% FBS (Gibco®, Life Technologies, Grand Island, N.Y.), were released from the plate surface by treatment with Accutase cell detachment solution (Innovative Cell Technologies, San Diego, Calif.). The detached cells were washed once with ice cold media containing 6% goat serum and resuspended in the same media. 100,000 cells were aliquoted per well of a V-bottom, 96-well plate and incubated with a range of HER2 antibody concentrations (0.05-100 nM) in 150 μl DMEM with 6% goat serum on ice for 3 hours. […] The cells were washed once with ice cold PBS (Gibco®, Life Technologies, Cat.# 10010049) and suspended in 200 μl of ice cold PBS with 1% paraformaldehyde. The amount of fluorescence bound per cell was determined by running 5000 cells for each treatment on the flow cytometer. The median fluorescence value for each treatment was graphed, and the dissociation constant, Kd, was calculated for each antibody with Graphpad Prism software by non-linear regression using the single site, specific binding model.
# [5] = target: T1, full-length human HER2 receptor on cells; assay: flow cytometry competition on JIMT-1 cells: unlabeled XMT 1519 titrated against 30 nM Alexa Fluor 647-labeled XMT 1519
# [6] = target: T2, recombinant cynomolgus monkey HER2 extracellular domain (amino acids 1-652, Sino Biological Cat.# 90295-CO8H) (cynomolgus monkey, UniProt A0A2K5WUT7 1-622); assay: ELISA, HER2 extracellular domain coated on plate, one site specific binding fit
# T2 construct: range 1-652; Bought protein; the stated range 1-652 includes the signal peptide of the construct
# Method: (§1) The affinity of the antibodies for recombinant human and cynomolgus monkey HER2 was determined by an ELISA assay. […] The wells were washed 4 times with TTBS (50 mM Tris-HCl, pH 7.4, 150 mM NaCl, and 0.05% Tween 20). The wells were blocked by incubation with 50 μl of TTBS containing 5% bovine serum albumin for 1 hr. […] Unbound test antibodies were removed with TTBS washes (4×). […] Unbound secondary antibody was removed by 4 TTBS washes. The HRP substrate, TMB Bethyl Laboratories#E102) was added to each well and incubated until a yellow color was visible. The reaction was stopped by the addition of 50 μl of 0.2 N sulfuric acid. […] Kd was determined by non-linear regression using the one site, specific binding model.
# [7] = target: recombinant human HER2 extracellular domain (amino acids 23-652, Acro Biosystems Cat.# HE2-H5225) (human, UniProt P04626 23-652); assay: as above
# Method: as §1
Binder,AKT phosphorylation in BT474 cells after 4 h antibody (western) [3],HER3 phosphorylation (Tyr 1289) in BT474 cells after 4 h antibody (western) [3],EC50 (read off the curve) [4],further results
B1,,,,IC50 (read off the curve) [1]: ~3 nM; AKT phosphorylation in MCF7 cells after 4 h antibody [2]: 103 % of untreated cells
B2,21 % of untreated cells,71 % of untreated cells,~1 nM,IC50 (read off the curve) [5]: ~5 nM
B3,30 % of untreated cells,76 % of untreated cells,~1 nM,
B4,,,,Kd [6]: 0.05 nM; Kd [7]: 0.05 nM
